Source: patent US20110305783A1, “Method and pharmaceutical composition for treating psoriasis, squamous cell carcinoma and/or parakeratosis by inhibiting expression of squamous cell carcinoma-related antigen” (Shiseido Company, Ltd., priority 2005, published 2011)
Entries after “also recorded” stand apart in the source; their conditions may differ. Like-named read-outs stand apart in the source and are kept apart here. Ends that are not written are not given here. * marks the point of attachment. Cbz = O=C(OCc1ccccc1)*; CH2F = FC*

T1: caspase-14 (Homo sapiens, UniProt P31944)
T1 construct: human caspase-14 is purified in the form of a heterodimer composed of a large subunit (17 KDa) and a small subunit (11 KDa); from tissue; host or cells: human cornified cells (heel stratum corneum)
T1 sequence (P31944 6-146 limits assumed): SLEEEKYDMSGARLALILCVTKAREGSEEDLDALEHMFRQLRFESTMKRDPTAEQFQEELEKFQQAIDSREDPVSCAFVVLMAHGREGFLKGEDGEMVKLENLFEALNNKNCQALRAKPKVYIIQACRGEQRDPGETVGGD
T1 sequence (P31944 153-242 limits assumed): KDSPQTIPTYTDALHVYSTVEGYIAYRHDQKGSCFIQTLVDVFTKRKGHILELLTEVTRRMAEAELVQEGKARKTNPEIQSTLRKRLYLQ

T2: caspase-3 (Homo sapiens, UniProt P42574)
T2 construct: purchased BIOMOL Research Labs, Inc. (Plymouth Meeting, Pa.)
T2 sequence (P42574 29-277): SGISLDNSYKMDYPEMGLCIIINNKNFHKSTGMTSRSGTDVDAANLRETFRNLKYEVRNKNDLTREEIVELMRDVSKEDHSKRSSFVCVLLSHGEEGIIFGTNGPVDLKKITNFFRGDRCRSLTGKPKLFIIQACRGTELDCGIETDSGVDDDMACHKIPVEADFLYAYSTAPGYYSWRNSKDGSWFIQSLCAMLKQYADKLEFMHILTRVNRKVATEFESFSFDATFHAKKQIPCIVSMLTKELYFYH

B1: SCCA-1: recombinant squamous cell carcinoma antigen 1, member of the serpin superfamily, intrinsic inhibitor of caspase-14 (protein)
chain: MNSLSEANTKFMFDLFQQFRKSKENNIFYSPISITSALGMVLLGAKDNTAQQIKKVLHFDQVTENTTGKAATYHVDRSGNVHHQFQKLLTEFNKSTDAYELKIANKLFGEKTYLFLQEYLDAIKKFYQTSVESVDFANAPEESRKKINSWVESQTNEKIKNLIPEGNIGSNTTLVLVNAIYFKGQWEKKFNKEDTKEEKFWPNKNTYKSIQMMRQYTSFHFASLEDVQAKVLEIPYKGKDLSMIVLLPNEIDGLQKLEEKLTAEKLMEWTSLQNMRETRVDLHLPRFKVEESYDLKDTLRTMGMVDIFNGDADLSGMTGSRGLVLSGVLHKAFVEVTEEGAEAAAATAVVGFGSSPTSTNEEFHCNHPFLFFIRQNKTNSILFYGRFSSP

Experiments:
Type in all cases: biochemical
[1] = biological target: T1, caspase-14; test: Inhibitor assay on purified caspase-14, WEHD-MCA hydrolysis activity
Method: Caspase-14 was incubated with peptide inhibitors of caspase (consisting of YVAD, VDVAD, DEVD, VEID, IETD, LEHD and DNLD) and class-specific inhibitors of cysteine proteinase (IAA) and serine proteinase (AEBSF). Residual enzyme activity was measured using WEHD-MCA as substrate in the presence of 1.3 M sodium citrate and 5 mM DTT. […] The values are shown as the average values of duplicate assays.
Briefly, the assay mixture was prepared from 45 μl of 0.1 M HEPES buffer (pH 7.5), 0.06 M NaCl, 0.01% CHAPS, 5 mM DTT, 1.3 M sodium citrate and 10 μM WEHD-MCA (all concentrations indicate the final concentrations). An enzyme sample (5 μl) was added to this mixture followed by incubating for 10 to 30 minutes. The reaction was stopped with 150 μl of 0.1 M monochloroacetic acid, and measurements were performed at an excitation wavelength of 355 nm and emission wavelength of 460 nm using Fluoroskan Ascent FL (Thermo Electron Co., Wolsam, Mass.). In the case of the inhibitor assay, caspase-14 and peptide inhibitor were incubated in the assay buffer for 15 minutes, and the assay was started with the addition of 5 μl of 100 μM WEHD-MCA.
Human cornified cells (approx. 14 g) scraped from the heels of healthy individuals were extracted with 0.1 M Tris-HCl (pH 8.0) containing 0.14 M NaCl using a glass homogenizer. A supernatant was obtained after centrifuging at 15,000 g for 60 minutes. After concentrating with Amicon Ultra (Millipore, Mass.) and desalting with the Fast Desalting Column HR10/10 (Amersham Biosciences), the crude product was applied to a HiPrep 16/10 QXL column. […] In addition, hydrolysis activity with respect to Ac-[…]-Glu-His-Asp-methyl-coumarin amide (WEHD-MCA) (Peptide Institute, Inc., Osaka, Japan) was measured for each fraction. Positive fractions were placed on a Mono Q column equilibrated with the same buffer and eluted a maximum NaCl gradient of 1 M. The caspase-14 fraction was further separated by Mono S cationic exchange chromatography. The column was equilibrated with 20 mM acetate buffer (pH 4.5) and eluted at an NaCl gradient of 0 to 1 M. Positive fractions were concentrated and placed on a chromatofocusing Mono P column equilibrated with 25 mM ethanolamine (pH 8.3). The column was eluted while forming a pH gradient from 8 to 5 using 46 ml of Polybuffer (pH 5.0). The caspase-14 was finally purified using Superdex 75 gel chromatography. The protein concentration was determined with the BioRad Protein Assay Kit (BioRad Lab, Hercules, Calif.).

[2] = biological target: T2, caspase-3; test: Caspase-3 activity with SCCA-1, synthetic substrate DEVD-MCA or natural substrate ICAD
Source text: The enzymatic characteristics of purified caspase-14 were extremely unique. […] The inventors of the present invention determined for the first time that SCCA-1 is an intrinsic inhibitor against caspase-14. The most unique characteristic of SCCA-1 is its remarkable specificity for caspase-14. Other members of caspase-1 to -10 are not affected by SCCA-1. […] Crm A belongs to the serpin superfamily and is known to be able to inhibit a large number of caspases including caspase-1 and caspase-8 (Gagliardini, V., et al., Science 263, 826-(1994)). XIAP is known to inhibit caspase-3, -7 and -9 (Srinivasula, S. M., et al., Nature 410, 112-6 (2001)). Since the anti-apoptotic protein p35 inhibits caspase-1, -3, -6, -7, -8 and -10, it is considered to have a broader spectrum.

[3] = biological target: T1, caspase-14; test: ICAD decomposition by purified caspase-14, Western blot; conditions: pre-incubation with 10 μM SCCA-1, kosmotropic salt, Western blot (FIG. 10B)
Method: (§1) ICAD decomposition was only observed in the presence of kosmotropic salt. […] When SCCA-1 was added to the mixture, ICAD decomposition was virtually not detected, and there were still no effects after incubating for 16 hours (B). (C) The results are shown of investigating hydrolysis activity on synthetic caspase substrates in the presence of kosmotropic salt.
The inventors of the present invention tested the effects of caspase-14 on ICAD during the course of searching for natural substrates of caspase-14. This is because disappearance of the nucleus is an extremely important event for terminal differentiation.
(§2) Although SCCA-1 is a member of the serpin superfamily, it inhibits cysteine proteases such as papain and cathepsin L (Takeda, A., et al., Biol. Chem., 383, 1231-6 (2002)). […] Thus, the inventors of the present invention conducted a test as to whether or not SCCA-1 is able to inhibit caspase members. Kosmotropic conditions were used in the case of caspase-14. […] Recovery of enzyme activity was not observed even if the incubation time increased.

[4] = test system: Recombinant caspases-1 to 10; test: Recombinant caspases incubated with SCCA-1, hydrolysis of synthetic caspase substrates; conditions: recombinant caspase incubated with SCCA-1 (FIG. 10C)
Method: as §1
Benzyloxycarbonyl (Z)-YVAD-FMK, Z-VDVSD-FMK, Z-DEVD-FMK, Z-VEID-FMK, Z-IETD-FMK, Z-LEHD-FMK and Z-VAD-FMK were purchased from BioVision (Mountain View, Calif.). Recombinant caspases-1 to 10 were obtained from BIOMOL Research Labs, Inc. (Plymouth Meeting, Pa.).
as §2

[5] = inhibitors at 5, 2.5 and 1.25 μM, WEHD-MCA substrate, 1.3 M sodium citrate, 5 mM DTT

Row | Molecule | Inhibitory effect on purified caspase-14 activity [1, 5] | further results
1 | IETD-FMK: caspase-8 inhibitor (Cbz-IETD-CH2F) | sensitivity | 
2 | O=C(O)CI [IAA, iodoacetic acid] |  | Inhibitory effect on purified caspase-14 activity [1]: did not exhibit significant inhibitory effects
3 | Benzyloxycarbonyl (Z)-YVAD-FMK | extremely potent inhibitory effects; also recorded: most potent inhibitory action | 
4 | VAD-FMK: pan-caspase inhibitor (Cbz-Val-Ala-Asp-CH2F) | sensitivity; also recorded: one of the most potent caspase-14 inhibitors | 
5 | NCCc1ccc(S(=O)(=O)F)cc1 [ABBSF, 4-(2-aminoethyl)benzenesulfonyl fluoride] | did not exhibit significant inhibitory effects | 
6 | VEID-FMK: peptide inhibitor of caspase (Cbz-VEID-CH2F) | hardly any effect | 
7 | LEHD-FMK: caspase-9 inhibitor (Cbz-LEHD-CH2F) | sensitivity | 
8 | VDVAD-FMK: caspase-2 inhibitor (VDVAD-CH2F) | sensitivity | 
9 | DEVD-FMK: caspase-3 inhibitor | sensitivity | 
10 | B1 |  | Inhibition of caspase-3 activity [2]: did not inhibit; Inhibition of ICAD cleavage by caspase-14 [3]: inhibited decomposition of ICAD; also recorded: completely inhibited; Effect on enzyme activity of caspase members (1 to 10) [4]: None of the caspase members (1 to 10) were affected
